The source of these data is patent US8557971B2, “Chimeric viral envelopes” (Aarhus Universitet, priority 2006, dated 2013).

The subject of one assay is NIH 3T3. Kind of assay: Titer (transduction) of chimeric envelope constructs on NIH 3T3 cells. The following applies: qualitative; FIG. 12. The format is cell-based, mouse. As for the experimental part:
(§1) Transfections were done by calcium phosphate precipitation method, described by Graham and van der Eb (Graham and van der Eb, 1973) leaving the calcium precipitate on the cells for 24 hours. 293T cells were transfected using 8 μg of envelope expression plasmid, 2 μg gagpol expression plasmid (Morita et al., 2000) and 1 μg of an EGFP expressing plasmid. EGFP was included as a visual aid to determine the success of transfections. Medium on the transfected cells was renewed every day until it was used for transduction, usually between 48 and 72 hours after transfection, depending on the number of green fluorescing cells.
(§2) The day before transduction, medium was changed from fetal calf serum to newborn calf serum containing medium. Semi-packaging cells (Bahrami et al., 2003) were seeded at concentration of 10^4 cells/cm^2 24 hours before transduction.
(§3) Supernatant from transfected cells was filtered (0.22μ). The supernatant with 6 μg/mL polybrene was added to the target cells. 24 hours later, the infected cells were selected using medium described before containing 600 μg/mL G418 for 10 days.

In another assay the target is T1, CXCR4 (Homo sapiens, UniProt P61073).
T1 construct: expressed in transfected cells; host or cells: D17 (dog) cells carrying CD4 and CXCR4
Description: Flow cytometry of cell surface expression of CXCR4 on transduced D17 CD4 CXCR4 cells. The format is cell-based. Particulars: D17 CD4 CXCR4 cells transduced with envelope vector; FIG. 6. As for the experimental part: Method: Flow cytometric analysis was carried out of Cell Surface Expression (CSE) of CXCR4 of cells transduced with vectors comprising the chimeric envelope polypeptide of the present invention. D17 CD4 CXCR4 cells were transduced with a vector expressing SL3-2 envelope with V3 loop inserted at positions indicated.
[…]; 315:51-61). The virus containing supernatant was subsequently used to transduce the D17 CXCR4CD4 cells.
Six chimeric variants have been tested (sequences used shown in SEQ ID NO: 3-8 and 42-47). In all panels the control D17 CD4 CXCR4 cells with […] envelope only (without the V3 insert) was tested against the same envelope comprising a V3 loop variant.
Protocol for flow cytometry: • Harvest cells (by nice trypzination) and spin down gently (1200 rpm, 5 min) • Keep cells on ice in all subsequent steps. • Wash once in wash buffer (2% Serum, 98% PBS—cold) ? […]
On the technique in general: Flow cytometry measures light scatter and fluorescence of single cells or particles in a stream.

The next assay relates to D17. Description: Titer on D17 dog cells. The format is cell-based. The following applies: qualitative. As for the experimental part:
as §1, §2, §3

A further assay relates to human cells. Kind of assay: Infection of human cells. The format is cell-based. Particulars: qualitative.

T1 sequence (P61073 whole entry): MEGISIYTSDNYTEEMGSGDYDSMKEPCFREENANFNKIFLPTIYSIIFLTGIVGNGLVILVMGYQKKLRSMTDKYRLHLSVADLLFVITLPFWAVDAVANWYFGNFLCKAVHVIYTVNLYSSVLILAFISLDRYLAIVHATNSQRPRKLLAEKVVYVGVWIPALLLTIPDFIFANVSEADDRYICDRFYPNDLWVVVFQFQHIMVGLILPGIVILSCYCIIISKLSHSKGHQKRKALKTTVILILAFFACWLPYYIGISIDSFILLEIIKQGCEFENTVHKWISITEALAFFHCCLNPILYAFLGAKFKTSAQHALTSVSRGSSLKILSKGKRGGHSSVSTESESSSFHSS

On to “wild-type SL3-2: SL3-2 murine leukaemia virus envelope polypeptide (SEQ ID NO: 2 / 60) [reference compound]”, for which, in the assay with NIH 3T3, the “Infection of NIH mouse cells” value is reported as “can be infected”. In addition, the “Binding of anti CXCR-4 antibody / CXCR-4 cell surface expression level” value with CXCR4 is given as “does not affect the expression levels of CXCR-4”.

B1: SL3-2GI (protein)
chain: VQHDSPHQVFNVTWRVTNLMTGQTANATSLLGTMTDAFPKLYFDLCDLIGDDWDETGLGCRTPGGRKRARIFDFYVCPGHTVLAGCGGPREGYCGKWGCETTGQAYWKPSSSWDLISLKRGNTPKGQGPCYDSSVVSSSAQGATPGGRCNPLVLEFTDAGKRASWDASKAWGLRLYRSTGIDPVTRFSLTRQVLNIGPRVPIGPNPVIIDQLPPSRPVQIMLPRPPQPPPPGAASTVPETAPPSQQPGTGDRLLNLVNGAYQALNLTSPDKTQECWLCLVAGPPYYEGVAVLGTYSNHTSAPANCSVASQHKLTLSEVTGQGLCVGAVPKTHQALCNTTQKTSNGSYYLAAPAGTIWACNTGLTPCLSTTVLDLTTDYCVLVELWPKVTYHSPGYVYGQFEEKTKYKREPVSLTLALLLGGLTMGGIAAGVGTGTTALVATQQFQQLQAAMQDDLKEVKKSITNLERSLTSLSEVVLQNRRGLDLLFLKEGGLCAALKEECCFYADHTGLVRDSMAKLRERLSQRQKLFESQQGWFEGLFNKSPWFTTLISTIMGPLIILLLILLFGPCILNHLVQFIKDRVSVVQALVLTQQYHQLKTIEDCESRE
For B1, the “Infection of dog cells” value in the assay on D17 is listed as “not dog cells”. The “Infection of human cells” value in the assay on human cells was “infects human cells”.
